{"source": "patent US6489299B2", "about": "“Methods for treatment of multiple sclerosis using peptide analogues at position 91 of human myelin basic protein” (Stanford University Medical Center, priority 1994, dated 2002)", "molecules": {"B1": {"name": "IFN-γ: cytokine administered to MS patients in a pilot study (protein, UniProt P01579 24-161, looked up)", "Interferon gamma": "QDPYVKEAENLKKYFNAGHSDVADNGTLFLGILKNWKEESDRKIMQSQIVSFYFKLFKNFKDDQSIQKSVETIKEDMNVKFFNSNKKKRDDFEKLTNYSVTDLNVQRKAIHELIQVMAELSPAAKTGKRKRSQMLFRG"}}, "key": {"EAE": {"tested_on": "EAE", "details": "rat, in vivo", "protocol": "In addition, as a safety measure, but not essential to this invention, suitable peptide analogues may be tested for direct induction of EAE. As described in detail in Example 2, various amounts of peptide analogues are injected at the base of the tail of rats, and the rats examined daily for signs of EAE. A peptide analogue which is not considered to cause EAE has a mean cumulative score of less than or equal to 1 over seven days when 1 mg (5 mg/kg) in complete Freund's adjuvant is injected.\nMBP peptides and analogues were dissolved in phosphate-buffered saline (PBS) and emulsified with an equal volume of incomplete Freund's adjuvant supplemented with 4 mg/ml heat-killed Mycobacterium tuberculosis H37Ra in oil (Difco Laboratories, Inc., Detroit, Mich.). Rats were immunized subcutaneously in the hind foot pads with 0.1 ml of the emulsion and were monitored for clinical signs daily by an observer blind to the treatment protocol. For intravenous injections MBP peptides and analogues were dissolved in normal saline. EAE was scored as follows: 0, clinically normal; 1, flaccid tail; 2, hind limb paralysis; 3, front and hind limb paralysis.\nThe ability of peptide analogues to cause EAE is assessed in vivo. Rats were injected with MBP (87-99) or (91K>A) peptide analogue as described in Example 2. Animals were monitored daily for evidence of EAE. Rats receiving MBP (87-99) had 100% incidence (18/18 rats) of EAE with a mean maximum clinical score of 2.4±0.2. In contrast, 0/12 rats receiving the peptide analogue (91k>A) had EAE."}, "[1]": {"tested_on": "MBP specific rat T cell line (NBI)", "assay": "Antigen-specific T cell line proliferation assay", "assay_type": "cell-based", "details": "three days, [3H]-thymidine; analogues at 20-120 μM; FIG. 3", "protocol": "FIG. 3 is a graph displaying the proliferative response of the T cell line NBI to position 91-substituted analogues. Ten different substitutions were tested. The proliferative response of NBI in response to concentrations of analogues ranging from 0 to 150 μM was determined. Proliferation is shown as counts per minute. Standard errors of the mean were less than ±10%. MBP 87-99; peptides from human myelin basic protein containing residues 87 to 99; K, lysine; R, arginine; N, asparagine; H, histidine; L, leucine; S, serine; G, glycine; k, D-lysine; E, glutamic acid; F, phenylalanine; and A, alanine.\nIn the direct proliferation assay, MBP (87-99) reactive T cell lines may be used as target cells. T cell lines are established from lymph nodes taken from rats injected with MBP (87-99). […] After 5 to 6 passages in this manner, the proliferative potential of the cell lines are determined. […] Cultures are harvested and incorporated counts determined. Mean CPM and standard error of the mean are calculated from triplicate cultures. […]\nFor this antigen-specific proliferation assay, T cell lines as established in Example 3 were used. […] Cultures were harvested on fiberglass filters and the proliferative response expressed as CPM±SD or as stimulation index (SI) (mean CPM from test cultures divided by mean CPM from control cultures)."}, "[2]": {"tested_on": "lymph node cells (LNC) reactive to MBP (87-99)", "assay": "Antigen-specific lymph node cell proliferation assay", "assay_type": "cell-based, Lewis rat", "details": "10 μM peptide, 3 days, [3H]-thymidine; FIG. 4", "protocol": "FIG. 4 is a graph displaying the proliferative response of MBP-reactive lymph node cells to position 91-substituted analogues. Two different substitutions were tested. The proliferative response of lymph node cells to 10 μM of MBP (87-99), motilin, A91 or K91 was determined. Proliferation is shown as counts per minute. BKG, no peptide added; 87-99, MBP (87-99); motilin, an unrelated peptide; A91, peptide analogue with alanine at position 91; K91, peptide analogue with D-lysine at position 91.\nAs an alternative to the use of T cell lines as described above, draining lymph node cells from Lewis rats immunized with MBP (87-99) may be used. […] Cultures are harvested on fiberglass filters and counted in a scintillation counter. Mean CPM and the standard error of the mean are calculated from data determined in triplicate cultures. […]\nFor the assay, 100 μl of the lymph node suspension was added to 96-well flat-bottom wells in the presence of an equal volume of medium containing 10 μM of various peptides (including: motilin as a negative control; MBP87-99; medium only, or alanine or D-amino acid substituted at position 91). […] The plates were then harvested with a Matrix filtermate harvester (Packard) and counted using an Automatic Direct Beta Counter (Packard). Mean cpm and the standard error of the mean were calculated from triplicate wells."}, "multiple sclerosis": {"tested_on": "multiple sclerosis", "details": "human, in vivo; cited from earlier work"}}, "data": [{"molecule": "MBP(68-88): EAE-inducing myelin basic protein peptide from a different region (KRTADPKNAWQDAHPADPGSR; UniProt P02686 68-88, looked up, fragment) [reference compound]", "values": [{"measurement": "EAE Incidence", "setting": "EAE", "result": "6/6"}, {"measurement": "EAE Mean Maximum Clinical Score", "setting": "EAE", "result": "3 ± 0"}]}, {"molecule": "CC[C@H](C)[C@H](NC(=O)[C@@H]1CCCN1C(=O)[C@@H](NC(=O)[C@@H](N)Cc1ccccc1)C(C)C)C(=O)N[C@@H](Cc1ccccc1)C(=O)N[C@H](C(=O)N[C@@H](Cc1ccc(O)cc1)C(=O)NCC(=O)N[C@@H](CCC(=O)O)C(=O)N[C@@H](CC(C)C)C(=O)N[C@@H](CCC(N)=O)C(=O)N[C@@H](CCCNC(=N)N)C(=O)N[C@@H](CCSC)C(=O)N[C@@H](CCC(N)=O)C(=O)N[C@@H](CCC(=O)O)C(=O)N[C@@H](CCCCN)C(=O)N[C@@H](CCC(=O)O)C(=O)N[C@@H](CCCNC(=N)N)C(=O)N[C@@H](CC(N)=O)C(=O)N[C@@H](CCCCN)C(=O)NCC(=O)N[C@@H](CCC(N)=O)C(=O)O)[C@@H](C)O", "note": "[motilin, reference compound]", "values": [{"measurement": "proliferation of the MBP specific rat T cell line (in words)", "setting": "[1]", "result": "does not stimulate proliferation at any dose"}, {"measurement": "proliferative response of MBP (87-99)-reactive lymph node cells (in words)", "setting": "[2]", "result": "failed to respond as well"}]}, {"molecule": "B1", "values": [{"measurement": "patients with a clinical exacerbation within one month after initiation of treatment", "setting": "multiple sclerosis", "result": "7 of 18"}, {"measurement": "specific response to MBP (in words)", "setting": "multiple sclerosis", "result": "increase"}]}]}
